Among the data in patent publication US20180362628A1 (KYMAB, published 2018) are Kd, koff and kon values, retold here.

Broadly, the Kd is a measure of binding affinity in units of concentration. In general, koff refers to a measure of how fast the partners let go of each other. For orientation: kon means the second-order rate constant of association.

Substitutions are numbered along the chain they refer to.

B1: Antibody 668 Fab (Fab, V domains shown)
VH: QVQLVQSGAEVKKPGASVKVSCKASGFTFTDYAMHWVRQAPGQRLEWMGWINAGNGYTKYSQKFQDRLTITRDTFASTVYMELSSLRSEDTTVYYCARDGFCPSNTCSGYYGMDVWGQGTTVTVSS
VL: QSALTQPASVSGSPGQSITISCTGTSSDVGSYNYVSWYQQHPGKAPKLMIYDVNTRPSGVSIRFSASKSGNTASLTVSGLQAEDEAVYYCSSYAGSSTWVFGGGTKLTVL
notes: recombinant human Fab from CHO-3E7 cells, purified on nickel columns
B2: Antibody 669 Fab (Fab, V domains shown)
VH: QVQLVQSGAEVKKPGASVRVSCKASGFTFTSYAMHWVRQAPGQRLEWMGWINAGNGHTKYSQKFQDRVAITRDTSATTVYMDLSSLRSEDTAVYYCTRDGFCTSTTCSDHYGMDVWGQGTTVTVSS
VL: B1 VL with L48F, N54S, T55K, I62N, A66G, V77I, V87D, S91C
notes: as for B1
B3: Antibody 667 Fab (Fab, V domains shown)
VH: QVQLVQSGAEVKKPGASVKVSCRASGYTFTNYAMHWVRQAPGQRLEWMGWINAGNGYTKYSQKFQDRVTITRDTSATTAYMELSSLRSEDTAMYYCARDSFYDILSGPVYHYYGMDVWGQGTTVTVSS
VL: QSALTQPDSVSGSPGQSITISCTGTSNDVGIYNHVSWYQQHPGKAPKLMIYDVNKRPSGISNRFSGSKSGDTASLTISGLQAEDEADYYCCSYAGSSAWVFGGGTKLTVL
notes: as for B1
B4: Antibody 666 Fab (Fab, V domains shown)
VH: QVQLVQSGAEVKKPGASVKVSCKASGYTFTNYAMHWVRQAPGQRLEWMGWINAGNGNTKYSQNFQGRVTITRDTSASTAYMELSSLRSEDTAVYYCARDEYYASGSYYDYYYYGMDVWGQGTTVTVTS
VL: QSALTQPASVSGSPGQSITISCTGTSSDVGVYNYVSWFQQHPGKAPKLMIYNVSKRPSGVSNRFSGSKSGNTASLTISGLQAEDEADYYCCSYAGSSTWVFGGGTNLTVL
notes: as for B1
B5: CL-141799 (antibody, V domains shown)
VH: B1 VH
VL: B1 VL with S31A, N33K, I62T
notes: human IgG1, HEK (Expi293F) culture supernatant
B6: CL-141766 (antibody, V domains shown)
VH: B4 VH with N31S, N63K, R67G, E100N, A103D, T127S
VL: B4 VL with I20F, V31S, Y34H, F38Y, N52D, N106K
notes: as for B5
B7: CL-141779 (antibody, V domains shown)
VH: B4 VH with N31S, N63K, E100Q, A103D, S104I, G105L, S106T, Y107P, D109Y, T127S
VL: B4 VL with V31G, F38Y, N52V, N106K
notes: as for B5
B8: CL-141790 (antibody, V domains shown)
VH: QVQLVQSGAEVKRPGASVKISCKASGYTFTNYAIHWVRQAPGQRLEWMGWINAGNGYTKYSQKFQGRVTITRDTSATSAYLELYSLISEDTAVYYCVRDEYYDSGSSNYYYYGMDVWGQGTTVTVSS
VL: B4 VL with V31N, Y34H, F38Y, G43D, N52D, N106K
notes: as for B5
B9: CL-141784 (antibody, V domains shown)
VH: QVQLVQSGAEVKNPGASLKVSCKASGYTFTNYAMHWVRQAPGQRLEWMGWINAGNGYTKYSQTFQGRVTITRDTYASTAYMELSSLRSEDTAVYYCVRDEYYESGSSNYYYYGMDVWGQGTTVTVSS
VL: B4 VL with V31S, Y34H, F38Y, N52D, K55T, N106K, L107M
notes: as for B5
B10: CL-141785 (antibody, V domains shown)
VH: B2 VH with T30I, R44G, N55D, T97S, S104T
VL: B4 VL with V31S, F38Y, L48F, N52D, N62D, N106K
notes: as for B5
B11: CL-141792 (antibody, V domains shown)
VH: QVQLVQSGAEVKKPGASVKVSCKASGYTFTSYAMHWVRQAPGQRLEWMGWINAGNGYTKYSQNFQGRVTITRDTSASTAYMELSSLRSEDTAVYYCARDNYFDSSVYDSSYYFYYGMDVWGQGTTVTVSS
VL: B4 VL with V31S, Y34H, F38Y, N52D, N106K
notes: as for B5
B12: CL-141783 (antibody, V domains shown)
VH: QVQLVQSGAEVKKPGASVKLSCKASGYTFTNYAMHWVRQAPGQSLEWMGWINAGNGYTKYSQKFQGRVTITRDTSANTAYMDLSSLRSEDTAVYYCARDQYYDILKGYYNVDYYYGMDVWGQGTTVAVSS
VL: B4 VL with V31S, Y34H, F38Y, N52D, N62D, A94V, N106K
notes: as for B5
B13: CL-141805 (antibody, V domains shown)
VH: B4 VH
VL: B4 VL
notes: as for B5
B14: CL-141791 (antibody, V domains shown)
VH: B3 VH with Y80H, S106T
VL: B3 VL with I31V, N54S, I60V, D71N, A94V, K106N
notes: as for B5
B15: CL-141806 (antibody, V domains shown)
VH: QVQLVQSGAEVKKPGASVKVSCKASGYTFTNYAIHWVRQAPGQRLEWMGWINAGNGNTKYSQKFQGRVTITRDTSASTAYMELSSLRSEDTAVYYCARDNFYGSGTYFSYFFYHMDVWGQGTTVTVSS
VL: B4 VL with V31S, Y34H, F38Y, N52D, V60M, N62D, N106K
notes: as for B5
B16: CL-141786 (antibody, V domains shown)
VH: QVQLLQSGAEVKKPGASVKVSCKASGYTFTNYAMHWLRQAPGQRLEWMGWINAGNGYTKYSQKFQGRVTITRDTSATTAYMDLSSLRSEDTAVYYCARDNYYDSNVYNSYYFYGMDVWGQGTTVTVSS
VL: B3 VL with A3V, D8A, S13P, N27S, I31N, G43D, D71N, A98T
notes: as for B5
B17: CL-141772 (antibody, V domains shown)
VH: QVQLVQSGAEVKKPGASVKVSCKASGFIFINYAMQWVRQAPGQRLEWMGWINAGNGYTKYSQKFQGRVTITRDISANTVYMELSSLRSEDTAVYYCARDGFCSTTTCSDHYGMDVWGQGTTVTVSS
VL: B4 VL with V31G, F38Y, N52D, N62D, A82T, N106K
notes: as for B5
B18: CL-141802 (antibody, V domains shown)
VH: QVQLVQSGTEVKKPGASVKVSCKASGFTFSSYAMHWVRQAPGQRLEWMGWINAGNGNTKYSQKFQGRVTITRDTSASTAYMELSSLRSEDTAVYYCARDGYCSSTSCYGYYGMDVWGQGTTVTVSS
VL: B1 VL with S31A, Y51S, N54S, T55K, I62N, A66G, G70D, S91C
notes: as for B5
B19: CL-141769 (antibody, V domains shown)
VH: B3 VH with V68F, M93V, S106T
VL: B3 VL with I31V, N54S, I60V, D71N, A86S, A98T
notes: as for B5
B20: CL-141776 (antibody, V domains shown)
VH: B2 VH with K13N, R19K, S31N, V79A, D82E, T97S, T103S, S104T
VL: B4 VL with V31G, F38Y, L48F, N52D, N106K
notes: as for B5
B21: CL-141781 (antibody, V domains shown)
VH: B3 VH with T30S, A97S, S106T
VL: B3 VL with I31V, N54S, I60V, D71N, A94V, S96N
notes: as for B5
B22: CL-141789 (antibody, V domains shown)
VH: B2 VH with A24T, M34I, H35Q, R44G, N55D, A69V, S104T
VL: B4 VL with V31S, F38Y, A45V, L48F, Y51S, N52D, V60I, N62D, S96G, N106K
notes: as for B5

One experiment concerns the target T1, Recombinant CSP (Wellcome Trust Sanger Institute, FIG. 22), CSP ectodomain with BirA biotinylation tag, … (Plasmodium falciparum strain 3D7, UniProt Q7K740 19-376, biotinylated at the BirA substrate peptide).
T1 construct: extracellular domain; Expressed in HEK293, 45 kDa; order of the tags is that of the legend, not confirmed; also called biotinylated recombinant CSP
As to the kind of experiment: SPR (ProteOn), biotinylated CSP on NLC chip, Fab as analyte, 25 C, 1:1 fit.
Regarding B1, the Kd was 12.5 nM, the dissociation rate constant (koff) came out at 0.000473 s⁻¹ and the kon stood at 37900 M⁻¹ s⁻¹.
The corresponding values for B2 are 126 nM, 0.00211 s⁻¹ and 16800 M⁻¹ s⁻¹.
On the same counts, the results for B3 are 31.6 nM, 0.00079 s⁻¹ and 25000 M⁻¹ s⁻¹.
The corresponding values for B4 are 52 nM, 0.00249 s⁻¹ and 48000 M⁻¹ s⁻¹.

The next experiment addresses Recombinant CSP (Wellcome Trust Sanger Institute, FIG. 22), CSP ectodomain with BirA biotinylation tag, biolinker and histidine tag (Plasmodium falciparum strain 3D7) (UniProt Q7K740). Kind of experiment: SPR, 2A10 on anti-mouse capture surface, CSP as analyte, 25 C, 1:1 fit. On the technique in general: Surface plasmon resonance follows binding to a sensor surface in real time, without labels.
On to Mouse monoclonal antibody 2A10 (IgG2aK), for which the dissociation constant (Kd) was found to be 0.04 nM, the koff turned out to be 9.41e-05 s⁻¹ and the kon came out at 2.23e+06 M⁻¹ s⁻¹.

Another experiment deals with T2, full CSP protein (analyte of Example 12) (Plasmodium falciparum (isolate 3D7), UniProt Q7K740 19-374).
T2 construct: not shown: C-terminal tags
As to the kind of experiment: SPR, IgG1 from supernatant on anti-human IgG surface, CSP as analyte, 25 C, 1:1 fit.
As to B5, the kon was determined as 486000 M⁻¹ s⁻¹.
Still for that read-out and setting: to B6 belongs 528000 M⁻¹ s⁻¹; to B7, 298000 M⁻¹ s⁻¹; to B8, 428000 M⁻¹ s⁻¹.
As to B9, the association rate constant (kon) amounted to 541000 M⁻¹ s⁻¹.
Still for that read-out and setting: to B10 belongs 573000 M⁻¹ s⁻¹.
Same read-out and setting: then B11, with 51300 M⁻¹ s⁻¹; and B12, with 128000 M⁻¹ s⁻¹; and B13, with 1.19e+06 M⁻¹ s⁻¹.
Same read-out and setting: to B14 belongs 253000 M⁻¹ s⁻¹.
The molecule B15 returned a kon of 284000 M⁻¹ s⁻¹.
The same measure, in the same setting: then B16, with 457000 M⁻¹ s⁻¹; and B17, with 338000 M⁻¹ s⁻¹; and B18, with 313000 M⁻¹ s⁻¹.
On the same count and under the same terms, then B19, with 156000 M⁻¹ s⁻¹; and B20, with 143000 M⁻¹ s⁻¹.
In turn, B21 returned a kon of 221000 M⁻¹ s⁻¹.
Still for that read-out and setting: then B22, with 293000 M⁻¹ s⁻¹.
